From US20230257452A1 (GTINVENT, published 2023)
Where a chain is given by its changes, count along the chain named.

B1: CE2 scAb (scFv)
scFv: QVQLQESGPSLVKPSQTLSLTCTVSGFSLTNYPVGWVRQAPGKALEWIGNIENDGSANYASALKSRLSITRDTSKNQVSLSLSSATTEDTAVYYCGREFGGSDGYTYFVDIDYWGPGLLVTVSSEGKSSGASGESKVDDQAVLTQPSSVSKSLGQSVSITCSGSSSNVGYGNYVSWFQQVPGSAPKILIYGATSRASGVPDRFSGSRSGNTATLTITSLQAEDEADYYCASYDGSSSGVFGSGTRLTVLG
notes: also called CE2/E1B8; not shown: human C kappa domain and hexa-His tag of the scAb format
B2: CB7 scAb (scFv)
scFv: QVQLQESGPSLVKPSQTLSLTCTVSGFSLTNYRVGWVRQAPGKALEWVSNIRSGGTTWYNPALKSRLSITADTSKSQVSLSLSSVTTEDTAVYYCARDSSGDLYAYDYWGPGLLVTVSSEGKSSGASGESKVDDQAVLTQPSSVSRSLGQSVSMTCSGSSSNVGYGNYMAWFQQVPGSAPKLLIYGATSRASGVPDRFSGSRSGNTATLTISSLQAEDEADYYCASYDSTSGGVFGSGTRLTVLG
notes: not shown: human C kappa domain and hexa-His tag of the scAb format
B3: CB2 scAb (scFv)
scFv: QVQLQESGPSLVKPSQTLSLTCTVSGFSLSTNSVGWVRQAPGKAPEWVAGIDTDGEEGFNPVLKSRLSITRDTSKSQVSLSLSNVTSEDTAVYYCGRSYRTDGLAYGYVQAIDYWGPGLLVTISSEGKSSGASGESKVDDQSVLTQPSSVSGSPGQTVSITCSGSYIGSSGVGWFQQLPGSGLRTIIVASDGRPSGVPDRFSMSKSGNTATLTISSLQAEDEADYFCGSSDRTQYTGLFGSGTRLTVLG
notes: as for B2
B4: CC7 scAb (scFv)
scFv: QVQLQESGPSLVKPSQTLSLTCTVSGFSLTSNAVIWVRQAPGKAPEWVALIDVDGDAAYDPALKSRLSITRDTSKSQVSLSLRSVTTEDTAVYYCARDYGSWGYVSDIDYWGPGLLVTVSSEGKSSGASGESKVDDRVVRTQPSSVSGSLGQRVSITCSGSYITGSSVGWFQQVPGSGLKTVIYDNNDRPSGVPDRFSGSKSGDTATLTISSLQAEDEADYYCASYDTSNIGLFGSGTRLTVLG
notes: as for B2
B5: S1D9 scAb (scFv)
scFv: QVQLQESGPSLVKPSQTLSLTCTVSGFSLTSNSVGWVRQAPGKAPEWVAGIDSDGEEGYNPALNSRLSITRDTSKNQVSLSLSRVTSEDTAVYYCGRTYRTDGYAYGYVQAIDYWGPGLLVTVSSEGKSSGASGESKVDDRVMLTQPPSVSGSPGQTVSITCSGSFIGISSVGWFQQLPGSGLRTVIFASDGRPSGVPDRFSNSKSGNTATLTISSLQAEDEADYFCGSSDRTQYTGVFGSGTRLTVLS
notes: as for B2
B6: S2C6 scAb (scFv)
scFv: QVQLQESGPSLVKPSQTLSLTCTVSGFSLISNSVGWVRQAPGKAPEWVAGIDTDGEEGYNPALKSQYAASDPDTSKSQVSLSLSSVTSEDTAVYYCGRTYRTDGFAYGYVQAIDYWGPGLLLTISSEGKSSGASGESKVDDQAVLTQPSSVSGSLGQRVSITCSGSFIGISSVGWFQQLPGSGLRTIIVASDGRPSGVPDRFSMSKSGNTATLTISSLQAEDEADYFCGSSDRTQYTGVFGSGTRLTVLG
notes: as for B2
B7: S1G10 scAb (scFv)
scFv: QVQLQESGPSLVKPSQTLSLTCTVSGFSLTSNSVGWVRQAPGKAPEWVAGIDTDGEEGYNPALNSRLSITRDTSKSQVSLSLSSVTSEDTAVYYCGRSYRADGLAYGYVQAIDYWGPGLLVTVSSEGKSSGASGESKVDDQAVLTQPSSMSGSLGQRVSITCSGSFIGISSVGWFQQLPGSGLRTIIVASDGRPSGVPDRFSMSKSGNTATLTISSLQAEDEADYFCGSSDRTQYTGVFGSGTRLTVLG
notes: as for B2
B8: S1E12 scAb (scFv)
scFv: B7 scFv with T30G, Q141R, A142V, L144R, M150V
notes: as for B2
B9: S1B1 scAb (scFv)
scFv: B7 scFv with T30S, G96V, A101T, M150V, I186V, M203N
notes: as for B2
B10: S1F4 scAb (scFv)
scFv: B7 scFv with T30S, G96V, V121L, V123I, L144V, M150V, I186V, M203N
notes: as for B2
B11: CA12 scAb (scFv)
scFv: QVQLQGSGPSLVKPSQTLSLTCTVSGFSFDSYYVGWVRQAPGKALEWLGNIYSTGRAFYNPALKSRLSITRDTSKSQVSLSVSSVTIEDTALYYCVRGSYYHGGGNGMVDFFDYWSPGLLVTVSSEGKSSGASGESKVDDQVVRTQPSSVSGSLGQRVSITCSGSSSNVGYGNYVGWFQQVPGSAPKLLIYAATSRASGVPDRFSGSRSGNTATLTIDSLQAEDEADYYCSSYQRGNTGVFGSGTRLTVLG
notes: as for B2
B12: CE3 scAb (scFv)
scFv: QVRLQESGPSLVKPSQTLSVTCTVSGFSLISNAVGWVRQAPGKVPESLAGCSSDGKCYYNSALKSRLDITRDTSKNQISLSLSSVTTDDAAVYYCTRGYYPVYGYDYLGTIDYWGPGLLVTVSSEGKSSGASGESKVDDQAVLTQPSSVSGSLGQRVSITCSGSSSNVGRNDVAWFQQLPGSGLRTIIYGTTSRPSGIPDRFSGSKSGVTATLTIDSLQAEDEADYFCASGDSSAINDIFGSGTRLTVLG
notes: as for B2
B13: CA4 scAb (scFv)
scFv: QVQLQESGPSLVKPSQTLSLTCTVSGFSLTSYSVYWVRQAPGQALEWISIMYASGRVDYNPALKSRLSITRDTSKSQFSLSLSSVTTEDTAVYYCTRGIENWGPGLLVTVSSEGKSSGASGESKVDDDIQVTQSPSSLSASLTERVSITCRTSQSVNNYLSWYQQKPGQAPKLLIYYATRLYTDVPSRFSGSGSGTDYTLTITSLEADDTATYYCLQYDSTPLAFGGGTNVEIK
notes: as for B2
B14: 412E10 scAb (scFv)
scFv: QVQLQESGPSLVKPSQTLSLTCTVSGFSVISDSVAWVRQAPGKVPEWLGASGSSGNKYYNPALKSRLSITRDTSKSQVSLSLSSVTTEDTAVYYCARGIIAGVDVWGRGLLVTVSSEGKSSGASGESKVDDQAVLTQPSSVSGSLGQRVSITCSGSSSNVGYGNYVGWYQQVPGSAPKLLIYGTAIRASGVPDRFSGSRSGDTATLTITSLQAEDEADYYCASYQSNYAFFGSGTRLTVLG
notes: as for B2

Tests used:
dGAE (tau 297-391) = target: T1, dGAE (tau 297-391) (human, UniProt P10636 614-708); assay: tau-tau immunoassay: scAb preincubated with 100 nM dGAE; blocked ligand: plate-bound dGA (1000 nM); bound dGAE detected with E2E8
T1 construct: also called dGAE95
Method: The adapted method is as follows: dGA (1000 nM) was adsorbed to a Nunc 96-well MaxiSorp plate and incubated for 1 h at 37° C. Plates were subsequently washed 3 times with PBST which was performed after each 1 h incubation. The plates were blocked with 2% (w/v) dried milk powder in PBS for 1 h at 37° C. […] The secondary antibody used was HRP-conjugated Anti-mouse IgG (1:1000 dilution, Sigma) and incubated at RT for 1 h. The plate was subsequently developed, and readings taken at absorbance 450 nm.

[1] = target: T2, full length human tau protein (2N4R, isoform Tau-F, 441 amino acids) (human, UniProt P10636 1-758); assay: sandwich ELISA, S1D12 mAb capture, hT40 titrated, detection scAb, chemiluminescent
T2 construct: also called hT40; htau40
Method: (§1) Full length tau (hT40), at 1 μg/ml starting concentration was added to designated wells and double diluted across rest of the plates and left to incubate at R/T for 1 h. A series of detection scAbs with varying epitope recognition properties were added at 10 μg/ml to designated wells (FIG. 22). For colourimetric detection HRP conjugated anti-HuCk secondary antibody was used and the resulting immunoreaction was developed and absorbance at 450 nm measured as described previously. Cut-off point for a positive binding event was an absorbance value of 0.3 following background subtraction. In order to enhance the assay sensitivity, a chemiluminescent detection method was adopted where 50 μL SuperSignal ELISA Femto Substrate (Thermo Scientific) was added to each well following incubation with anti-HuCK HRP antibody and subsequent washing. The luminescence was read using Clariostar Plus microplate reader. A further modification to this protocol was done where various detection scAbs were directly conjugated with HRP and detected using chemiluminescent protocol as before.

[2] = target: T2, full length human tau protein (2N4R, …); assay: sandwich ELISA, S1D12 mAb capture, hT40 titrated, detection scAb at 10 ug/ml, colourimetric
Method: as §1

[3] = target: T2, full length human tau protein (2N4R, …); assay: ELISA, hT40 coated, scAb titrated

T2 sequence (P10636 other isoform, or with tags, fused parts or gaps limits assumed): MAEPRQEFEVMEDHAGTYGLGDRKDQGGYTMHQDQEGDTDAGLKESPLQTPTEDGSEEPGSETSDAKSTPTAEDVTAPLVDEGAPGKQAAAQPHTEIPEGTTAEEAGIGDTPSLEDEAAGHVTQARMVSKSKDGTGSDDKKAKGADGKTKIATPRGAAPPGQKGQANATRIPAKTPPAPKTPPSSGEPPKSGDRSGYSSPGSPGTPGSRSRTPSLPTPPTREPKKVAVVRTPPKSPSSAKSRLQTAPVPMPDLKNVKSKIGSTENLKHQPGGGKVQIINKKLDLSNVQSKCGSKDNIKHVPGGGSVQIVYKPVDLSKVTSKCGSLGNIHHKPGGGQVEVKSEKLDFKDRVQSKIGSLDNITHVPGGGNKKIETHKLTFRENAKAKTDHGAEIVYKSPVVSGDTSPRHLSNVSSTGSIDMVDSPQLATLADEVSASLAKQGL
T1 sequence (P10636 614-708 limits assumed): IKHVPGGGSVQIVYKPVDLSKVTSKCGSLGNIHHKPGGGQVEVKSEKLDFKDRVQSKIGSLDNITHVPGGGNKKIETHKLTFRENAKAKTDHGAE

Row | Binder | B50 (dGAE (tau 297-391)) [nM] | LoD (ng/ml) chemiluminescence detection [1] [ng/mL] | LoD (ng/ml) colourimetric detection [2] [ng/mL] | EC50 (read off the curve) [3] [µg/mL]
1 | B1 | 211 | – | – | –
2 | B2 | – | 3.33 | 15 | –
3 | B3 | 93 | – | – | –
4 | B4 | – | 3.33 | 6 | –
5 | B5 | 107 | – | – | –
6 | B6 | 51 | – | – | –
7 | B7 | 207 | 0.12 | 2 | –
8 | B8 | 92 | – | – | –
9 | B9 | 101 | – | – | –
10 | B10 | – | – | – | ~0.05
11 | B11 | 59 | – | – | ~0.02
12 | B12 | 209 | – | – | –
13 | B13 | 221 | 0.37 | 6 | –
14 | B14 | – | 0.37 | 20 | –
